According to article PMC6711705, “Tailored tetravalent antibodies potently and specifically activate Wnt/Frizzled pathways in cells, organoids and mice” (eLife, 2019):
Where two headings read alike, the source gives them in different places. One block for each binder: values may come before it.

How the values were obtained:
Fc-tagged FZD7 CRD [1] = biological target: T1, Fc-tagged FZD7 CRD (Homo sapiens, UniProt O75084)
Fc-tagged FZD4 CRD [2] = biological target: T2, Fc-tagged FZD4 CRD (Homo sapiens, UniProt Q9ULV1); assay: SPR; soluble F^P Fab or IgG injected over FZD-Fc immobilised on a GLC sensor by amine coupling; PBS, 0.05% Tween20, 0.5% BSA; 25 °C; 1:1 Langmuir model, global fit; conditions: both partners purified
T2 construct: Frizzled-4, human, cysteine rich domain (CRD); also called FZD4-Fc; source: bought: R and D Systems

Fc-tagged FZD1 CRD = biological target: T3, Fc-tagged FZD1 CRD (Homo sapiens, UniProt Q9UP38); assay: as above; conditions: both partners purified
T3 construct: Frizzled-1, human, cysteine rich domain (CRD); also called FZD1-Fc; source: bought: R and D Systems

Fc-tagged FZD7 CRD [3] = biological target: T1, Fc-tagged FZD7 CRD; assay: as above; conditions: both partners purified
Fc-tagged FZD2 CRD [4] = biological target: T4, Fc-tagged FZD2 CRD (Homo sapiens, UniProt Q14332); assay: as above; conditions: both partners purified
T4 construct: Frizzled-2, human, cysteine rich domain (CRD); also called FZD2-Fc; source: bought: R and D Systems

Fc-tagged FZD4 CRD [5] = biological target: T2, Fc-tagged FZD4 CRD
Target sequence in this assay (Q9ULV1 40-161): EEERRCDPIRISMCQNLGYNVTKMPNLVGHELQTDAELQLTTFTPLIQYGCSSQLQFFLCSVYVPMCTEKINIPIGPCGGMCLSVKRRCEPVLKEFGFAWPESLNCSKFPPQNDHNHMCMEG

Fc-tagged FZD2 CRD [6] = biological target: T4, Fc-tagged FZD2 CRD

- binding result (Fc-tagged FZD4 CRD [2]): binds
- binding result (Fc-tagged FZD1 CRD): binds
- binding result (Fc-tagged FZD7 CRD [3]): binds
- binding result (Fc-tagged FZD2 CRD [4]): binds
B2: F^P Fab (Fab, V domains shown)
VH: EVQLVESGGGLVQPGGSLRLSCAASGFNIGSSSIHWVRQAPGKGLEWVASIYSAFASTSYADSVKGRFTISADTSKNTAYLQMNSLRAEDTAVYYCARYHFPFGFALDYWGQGTLVTVSS
VL: DIQMTQSPSSLSASVGDRVTITCRASQSVSSAVAWYQQKPGKAPKLLIYSASSLYSGVPSRFSGSRSGTDFTLTISSLQPEDFATYYCQQGVYLFTFGQGTKVEIK
notes: VH as the F^P VH of m1; constant part of the Fab heavy chain; the Fab construct is not described; VL as the F^P VL of m1; constant part of the Fab light chain; Parent paratope of the N-terminal diabody of m1; also called pan-FZD Ab (F^P); source: Expi293F, transient transfection, purified (rProtein A Sepharose)

- binding result (Fc-tagged FZD2 CRD [6]): binds
B4: FLAg 2+2 (anti-FZD2 paratope) (antibody, V domains shown)
VH: EVQLVESGGGLVQPGGSLRLSCAASGFNIYYSSIHWVRQAPGKGLEWVASIYPYYGYTYYADSVKGRFTISADTSKNTAYLQMNSLRAEDTAVYYCARYYHYGLDYWGQGTLVTVSS
VL: DIQMTQSPSSLSASVGDRVTITCRASQSVSSAVAWYQQKPGKAPKLLIYSASSLYSGVPSRFSGSRSGTDFTLTISSLQPEDFATYYCQQSYWHSYLITFGQGTKVEIK

Further lines, the binder ahead of its results:

B1: FLAg 7+7 (anti-FZD7 paratope) (antibody, V domains shown)
VH: EVQLVESGGGLVQPGGSLRLSCAASGFNISSSSMHWVRQAPGKGLEWVASIYSYYGSTYYADSVKGRFTISADTSKNTAYLQMNSLRAEDTAVYYCARWYGMDYWGQGTLVTVSS
VL: DIQMTQSPSSLSASVGDRVTITCRASQSVSSAVAWYQQKPGKAPKLLIYSASSLYSGVPSRFSGSRSGTDFTLTISSLQPEDFATYYCQQPGSWYFPPITFGQGTKVEIK
- binding result (Fc-tagged FZD7 CRD [1]): binds

B3: FLAg 4+4 (anti-FZD4 paratope) (antibody, V domains shown)
VH: EVQLVESGGGLVQPGGSLRLSCAASGFNSSFYFMHWVRQAPGKGLEWVATVYPYLDYTYYADSVKGRFTISADTSKNTAYLQMNSLRAEDTAVYYCARAFPGSYHPMDYWGQGTLVTVSS
VL: DIQMTQSPSSLSASVGDRVTITCRASQSVSSAVAWYQQKPGKAPKLLIYSASSLYSGVPSRFSGSRSGTDFTLTISSLQPEDFATYYCQQSSYSLITFGQGTKVEIK
- binding result (Fc-tagged FZD4 CRD [5]): binds
